The source of these data is doi:10.1101/2020.06.17.157057.

Like-named read-outs stand apart in the source and are kept apart here.

Test [1] concerns the target Maltose Binding Protein (MBP), tethered between beads by DNA handles [MBP: P0AEX9]. As to the kind of experiment: optical tweezers.
Test [2] has the same target. Nature of the test: optical tweezers. This is another data set of the same source.

“GroEL398A (slowly hydrolyzing GroEL) (from UniProt P0A6F5 1-548) (natural protein)” gave a tethers that switched to a prolonged unfolded state in test [1] of 30%.
As to “GroEL (wild type) (from UniProt P0A6F5 2-525) (natural protein)”, the tethers that switched to a prolonged unfolded state worked out at 20% in test [2] and 50% in test [1].
